{"source": "paper PMC11273223", "about": "(Glycobiology, 2024)", "molecules": {"B1": {"name": "UGT71C1 (Arabidopsis thaliana) (protein)", "chain": "GKQEDAELVIIPFPFSGHILATIELAKRLISQDNPRIHTITILYWGLPFIPQADTIAFLRSLVKNEPRIRLVTLPEVQDPPPMELFVEFAESYILEYVKKMVPIIREALSTLLSSRDESGSVRVAGLVLDFFCVPMIDVGNEFNLPSYIFLTCSAGFLGMMKYLPERHREIKSEFNRSFNEELNLIPGYVNSVPTKVLPSGLFMKETYEPWVELAERFPEAKGILVNSYTALEPNGFKYFDRCPDNYPTIYPIGPILCSNDRPNLDSSERDRIITWLDDQPESSVVFLCFGSLKNLSATQINEIAQALEIVDCKFIWSFRTNPKEYASPYEALPHGFMDRVMDQGIVCGWAPQVEILAHKAVGGFVSHCGWNSILESLGFGVPIATWPMYAEQQLNAFTMVKELGLALEMRLDYVSEDGDIVKADEIAGTVRSLMDGVDVPKSKVKEIAEAGKEAVDGGSSFLAVKRFIGDLIDGVSISK"}}, "key": {"TcCGT1": {"biological_target": "T1, TcCGT1 (Trollius chinensis, UniProt A0A4Y5RXX8)", "T1 sequence (A0A4Y5RXX8 2-483)": "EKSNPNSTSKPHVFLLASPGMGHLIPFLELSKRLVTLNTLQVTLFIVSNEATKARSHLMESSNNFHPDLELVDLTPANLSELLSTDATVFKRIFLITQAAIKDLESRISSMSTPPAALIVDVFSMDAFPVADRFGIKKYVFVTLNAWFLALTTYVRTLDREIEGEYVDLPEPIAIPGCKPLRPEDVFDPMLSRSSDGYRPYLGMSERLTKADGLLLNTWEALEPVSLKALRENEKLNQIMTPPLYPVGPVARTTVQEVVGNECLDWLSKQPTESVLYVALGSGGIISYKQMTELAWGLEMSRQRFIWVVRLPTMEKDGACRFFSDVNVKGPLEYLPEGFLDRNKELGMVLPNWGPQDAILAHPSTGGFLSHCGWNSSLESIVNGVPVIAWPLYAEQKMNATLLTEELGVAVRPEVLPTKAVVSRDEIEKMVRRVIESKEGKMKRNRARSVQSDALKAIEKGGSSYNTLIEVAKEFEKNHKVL", "assay": "HPLC end-point turnover to O- and C-glucosides", "format": "biochemical", "conditions": "50 μM aloesone, 200 μM UDP-Glc, 50 mM HEPES, pH 7.4, 30 °C, overnight"}, "[1]": {"substrate": "CC(=O)Cc1cc(=O)c2c(C)cc(O)cc2o1", "assay": "HPLC initial rates of O-glucoside formation, Michaelis-Menten fit", "format": "biochemical, Arabidopsis thaliana", "conditions": "0.8 mM UDP-Glc, 50 mM HEPES, 50 mM NaCl, pH 7.4"}}, "data": [{"molecule": "CC(=O)Cc1cc(=O)c2c(C)cc(O)cc2o1", "note": "[aloesone, 2-acetonyl-7-hydroxy-5-methylchromone]", "values": [{"measurement": "HPLC end-point turnover to O- and C-glucosides", "setting": "TcCGT1", "value": "both C-and O-glucosides were detected in the reaction with TcCGT1"}]}, {"molecule": "B1", "values": [{"measurement": "Km", "setting": "[1]", "value": "50.54 ± 7.29", "unit": "µM"}, {"measurement": "kcat", "setting": "[1]", "value": "0.27 ± 0.01", "unit": "s⁻¹"}, {"measurement": "kcat/Km", "setting": "[1]", "value": 5000, "unit": "M⁻¹ s⁻¹"}]}]}
